From a protein production outcome set (Wang et al. 2014)

Assay: label from the status in PepcDB records

Sequence	protein production
MKVNKFITIYKDIAQQIEGGRWKAEEILPSEHELTAQYGTSRETVRKALHMLAQNGYIQKIRGKGSVVLNREKMQFPVSGLVSFKELAQTLGKETKTTVHKFGLEPPSELIQKQLRANLDDDIWEVIRSRKIDGEHVILDKDYFFRKHVPHLTKEICENSIYEYIEGELGLSISYAQKEIVAEPCTDEDRELLDLRGYDHMVVVRNYVFLEDTSLFQYTESRHRLDKFRFVDFARRGK	not failed
YTISEVVAFTGLTAHTLRWYERIGLMPHIDRSHTGQRRYSNRDLDWLAFVGKLRLTGMPVADMVRYAEMVREGDGTYTQRYEILESTRRDVLARIAELQDTLAVLDHKISFYADAGRALTSERSR	failed
MAGCGANDTSSTKEKASSEKSGVTKEITASVNKMETIISKLNDSVEKGDQKEIEKKGKELNSYWLSFENDIRSDYPFEYTEIEKHLQPIYTEAQKDKPDAGKIKTESESLKASLEDLTEAKKSGKKASDQLAKAADEYKGYVKEQSDQLVKATEAFTGAVKSGDIEKSKTLYAKARVYYERIEPIAESLGDLDPKIDARENDVEEGDKWTGFHKLEKAIWKDQDISGEKATADQLLKDVKELDGSIQSLKLTPEQIVAGAMELLNEAGISKITGEEERYSRIDLVDLMANVEGSEAVYQTVKSALVKDHSDLTEKLDTEFSEFEVLMAKYKTNDQSYTSYDKLSEKQIRELSTKLTTLSETMSKIANVLLEHHHHHH	not failed
MKARAILLASVLLVGCQASKHDGTVEQRAQSLSAAGQGEAGKFTSQARWLDDGTFYAQDQDLWTSIGDELKMGIPDNPRIREQKQKYLRNKSYLHDVTLRAEPYMYWIAGQVKKRNMPMELVLLPIVESAFDPHATSGANAAGIWQIIPSTGRNYGLKQTRSYDARRDVVASTTAALDMMQRLNKMFDGDWLLTVAAYNSGEGRVMKAVKANRSRGKPTDFWSLSLPHETKIYVPKMLALSDILKNSKRYGVKLPTADESRALARVRLDSPVDISQLADMAGMPVSKLKTFNAGVKGSTLGASGPKYVMVPQKHAAQLRESLASGDIAAVQPTQLADNTPLTSRSYKVRSGDTISGIASRLGVTTRDLQQWNNLRGSGLKVGQNLVIGAGSSAQRLANNSDSITYRVRKGDSLSSIAKRHGVNIRDVMRWNSDTDNLRPGDQLTLFVKNNDRPES	failed
MPPELNWQEIDTVLLDMDGTLLDLEFDSHFWLKQVPETLSQRRGISLEQAHKIIHDEYLAVQHTLNWYCFDYWSERLDLDIYAMTTQAGNRVRLRQDTQPFLASLRERGLQTILLTNAHPHSLAVKIEHTALDQHLDLLLSTHTFGYPKEDQRLWQAVTQHTGLNPARTLFVDDSEKILDAARTFGIRYCLGIENPDSSCADKAFHSHPAINDYRKLLPALELRK	failed
MNEEQRKSTSIDILAERDKKTKDYSKYFEHVYQPPSLKEARKRGKEEVNYNDDFQIDEKYRNMGQGKTFLIKTYGCQMNAHDTEVMAGILGALGYTPTEDINHADVILINTCAIRENAENKVFSEIGNLKHLKKEKPETVIGVCGCMSQEESVVNKILKSYQNVDMIFGTHNIHRLPEILEEAYLSKAMVVEVWSKEGDVIENLPKVREGNIKAWVNIMYGCDKFCTYCIVPFTRGKERSRRPEDIIDEVRDLARQGYKEITLLGQNVNAYGKDIDGLAYGLGDLLEDISKIDIPRVRFTTSHPWDFTDRMIEVIANGGNIVPHVHLPVQSGNNAVLKIMGRKYTRESYLDLVNRIKTHIPNVALTTDIIVGYPNETDEQFEETLTLYDEVEFEHAYTYIYSQRDGTPAAKMNDNVPLDVKKDRLQQLNKKVACYSERAMQQYEGQTVQVLCEGVSKKDDTVLSGYTSKNKLVNFKAPKSMIGKIVNVYIDEAKQFSLNGTFISVNDKTVVTQLEHHHHHH	not failed
HGGHRQYAKEILSTSSAAMASQRSFLGLEPTIKKIPAFRAVYLRHKGYNKSIALSWQKLMAWGFEHQISSQARQIGIHHDNPSITPLAECRYIAALEVEEGFRAQGLLGVMEFPPTLCAVFEVQGRYGDVLGLIDYVYHEWLPQSGYEAKTIPAFALYQKNHFLDPLGNFQLDFCLPVGVV	failed
MANNTTGFTRIIKAAGYSWKGLRAAWINEAAFRQEGVAVLLAVVIACWLDVDAITRVLLISSVMLVMIVEILNSAIEAVVDRIGSEYHELSGRAKDMGSAAVLIAIIVAVITWCILLWSHFG	failed
MTHNIHDNISQWMKSNEETPIVMSSRIRLARNLENHVHPLMYATENDGFRVINEVQDALPNFELMRLDQMDQQSKMKMVAKHLISPELIKQPAAAVLVNDDESLSVMINEEDHIRIQAMGTDTTLQALYNQASSIDDELDRSLDISYDEQLGYLTTCPTNIGTGMRASVMLHLPGLSIMKRMTRIAQTINRFGYTIRGIYGEGSQVYGHTYQVSNQLTLGKSELEIIETLTEVVNQIIHEEKQIRQKLDTYNQLETQDRVFRSLGILQNCRMITMEEASYRLSEVKLGIDLNYIELQNFKFNELMVAIQSPFLLDEEDDKSVKEKRADILREHIK	failed
MSLEAGAGAPLARYAAWRRAGDFIFLSGIIPVNPLTGTIVNGFQDVPEPVRELLGATGEFSTDAKQGPILAQSWYVLESIRRTVASAGGQMSDVIKLVQYFRNLDHFPYYSRVRKLFYPDQPPVSTVVQVSEMLPDATVLIEVEATVWLPPSFNSEAEGHHHHHH	not failed
MSLIERVRTDLYRIPLPTRLTDSTHGAMMDFELITVRIEDSDGATGLGYTYTVNHGGAAVATMVDKDLRGCLLGADAEQIEKIWQSMWWRLHYAGRGGHATSAISAVDIALWDLKGIRARTPLWKLFGGYDPVVPVYAGGIDLELPVADLKTQADRFLAGGFRAIKMKVGRPDLKEDVDRVSALREHLGDSFPLMVDANMKWTVDGAIRAARALAPFDLHWIEEPTIPDDLVGNARIVRESGHTIAGGENLHTLYDFHNAVRAGSLTLPEPDVSNIGGYTTFRKVAALAEANNMLLTSHGVHDLTVHALASVPHRTYMEAHGFGLHAYMAEPMAVTDGCVSAPDRPGHGVVLDFERLGRLAVGEGHHHHHH	not failed
MKLGYSLSKSNAKNFKFYINGSAMGYKNIIINGAKSWNASPYLNTVSKGRDANPHFIISSSTIDRGATVAVCETWAYKGSKLVAKNEITTFKAFRSLSVGDKTETIAHEFGHGLGLGHVKTKNAIMLDVGFTKKIKPQRDDLNGIKAIYKLEHHHHHH	failed
MRPEIAVLDIQGQYRVYTEFYRADAAENTIILINGSLATTASFAQTVRNLHPQFNVVLFDQPYSGKSKPHNRQERLISKETEAHILLELIEHFQADHVMSFSWGGASTLLALAHQPRYVKKAVVSSFSPVINEPMRDYLDRGCQYLAACDRYQVGNLVNDTIGKHLPSLFKRFNYRHVSSLDSHEYAQMHFHINQVLEHDLERALQGARNINIPVLFINGERDEYTTVEDARQFSKHVGRSQFSVIRDAGHFLDMENKTACENTRNVMLGFLK	failed
MMRRQASVLLLVSMVSATVLPVFARAPGEREPSCAATSIVLPAGARYPNGIAHAADGTLYVGLVTSGRILRKPPGGEWETFFAGSPAIFAATALRLDEPRGLLWGNSPDFLPAGRRRPHGVFALDLASGAVRRYLTLPGDGMGNDLAVAPDGTVYLSETRDGSLMRLRPGEPAFQVLLRDSRLAGPGGLGAAGIVRVDDDTLLVGNFGSGAIHVVEGVATRPRLREMELPRTLENPDGMALAPDGSLIVLENAIRSGAGKVLRIAEPLAPGRRGIEVIREGLESPVNLTVTGQGCAYVSESRIRHRLLPGREGEVPARFLIHRLPLDAAGGR	failed
MAKKILILGAAGEIARMLTDRLLAESDAELVLYGRNVSQRLALEENSRIKLVDGTFGESEKLEAALAGVDVVYLNSMSSPADTASVVQALEKAGVKRLLGATIAGVEDEVPYELATWTKNSLPASYIKGEYDSAKIVRDSNLDYTLLRLTWLFNDESDREYELVPSGVEFADAEVSRQAITQAILDILNGEESEYVRKSFGLGKPNTHYGKPSFY	failed
EQAEAQLAELDLLASMFPGENELIVNDQLAVAELKDCIEKKTMEGRSSKVYFTINMNLDVSDEKMAMFSLACILPFKYPAVLPEITVRSVLLSRSQQTQLNTDLTAFLQKHCHGDVCILNATEWVREHASGYVSRDTSS	not failed
MKKLINIILLSLIFVFCFNLKVLANDNLESSKEKIDNDSRIERFYDYINNLETEEDILGNMSAKEYIMNYLESGEDPITLKKIGASILSYIFRELNIVLKFIASILVIALLSALLKNLQDAFNIEEGVTQIAFFACYALLIMLLTKSFFISLNLGKEVLTSIIDFMNVIVPVIVMLIATSGGVTSAVTIDPIVLGAVSITPRIYTYFLFPLILAYFTLQFVNNLSSEFKIDRMCKFIKQVVMISQGFILTIFVGILTLRGMTADTLDAVAVKTVKFAVDNFVPIVGKAFSDAITTVAGYSLAMKSVITSLGVIVIVVIVIYPIIKIGLMAICFKLTSAVIEPVVDSKISSSVETVGEALFMIMSCIISVSIMFFIMASMMATAGNFIVGG	failed
MKHIFRFKNYFFHSKNNQLKRLLLVAFLLTGLWLTPQQGRVWGQEQPFVVKKIDLSQYGAAASIAQDPESKQLAIGFYNCNLIFLDANLNQDQKNNLFLKNCKRFFRARYGEFGSIPFLISSIYTGSSVLHNSQENFDIPLHKAAVTDSLILQDYLLSSSDDGSVTISRLISLSPPEVNTFKLYQSIGVARNLAFTHTSNPEVGKVAVSYDTGEIAIFNIDHDTARNPVEPSTFKTINSRINTFKFTPDGAKLLIGYFTGELVELDLATGAHKTLAKVNSWLNALDINSENLVAIADDQGFVKIISLTTGKIVEEHKISTTGINAVIFTDDQTVVAADATGMIYQGKLAGSN	failed
MGHHHHHHSHMAAAIASSLIRQKRQAREREKSNACKCVSSPSKGKTSCDKNKLNVFSRVKLFGSKKRRRRRPEPQLKGIVTKLYSRQGYHLQLQADGTIDGTKDEDSTYTLFNLIPVGLRVVAIQGVQTKLYLAMNSEGYLYTSELFTPECKFKESVFENYYVTYSSMIYRQQQSGRGWYLGLNKEGEIMKGNHVKKNKPAAHFLPKPLKVAMYKEPSLHDLTEFSRSGSGTPTKSRSVSGVLNGGKSMSHNEST	not failed
MSDNKPFGGSFGSNGGQYATTVQYGGTAAAPAKVSLGDTPAAAPAGDVIKDTTTAAFAADVIQESRRQPVLVDFWAPWCGPCKQLTPQLEKAVRAAGGKVKLVKMNIDDHPSIAGQLGIQSIPAVIAFKDGQPVDGFMGAIPESQIAEFITKVGGKGNGAPAVAEALAAATEAREAGDMQTAADIFDAILAQAPETIEAIAGLGELLFEAGDTEGAEALLATAPEAKKDAPVLAALRAKMALAAQAAELGNPAEFERRLAENPKDHQARFDLAMIQNARGERTAAADNLLAIIKADRGWNEDGARTQLLQFFEAWGMTDEATLAARRKLSALLFS	failed
